This is an account of results in article PMC4717663 (2014).

This experiment deals with pro-TGF-β1 (Homo sapiens, UniProt P01137).
Sequence of pro-TGF-β1 (P01137 30-278, chain 1 of 2): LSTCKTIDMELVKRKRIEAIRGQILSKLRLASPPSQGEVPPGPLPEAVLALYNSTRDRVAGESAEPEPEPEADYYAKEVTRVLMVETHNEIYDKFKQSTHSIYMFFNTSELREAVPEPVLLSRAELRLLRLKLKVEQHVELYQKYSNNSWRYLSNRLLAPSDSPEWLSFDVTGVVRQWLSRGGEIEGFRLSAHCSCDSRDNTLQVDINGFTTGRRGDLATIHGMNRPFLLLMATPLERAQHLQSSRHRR
Sequence of pro-TGF-β1 (P01137 279-390, chain 2 of 2): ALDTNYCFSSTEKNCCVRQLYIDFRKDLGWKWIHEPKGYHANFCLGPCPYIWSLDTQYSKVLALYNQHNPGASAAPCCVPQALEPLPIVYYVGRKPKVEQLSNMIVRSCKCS

B1: integrin αVβ6 (protein)
chain 1: FNLDVDSPAEYSGPEGSYFGFAVDFFVPSASSRMFLLVGAPKANTTQPGIVEGGQVLKCDWSSTRRCQPIEFDATGNRDYAKDDPLEFKSHQWFGASVRSKQDKILACAPLYHWRTEMKQEREPVGTCFLQDGTKTVEYAPCRSQDIDADGQGFCQGGFSIDFTKADRVLLGGPGSFYWQGQLISDQVAEIVSKYDPNVYSIKYNNQLATRTAQAIFDDSYLGYSVAVGDFNGDGIDDFVSGVPRAARTLGMVYIYDGKNMSSLYNFTGEQMAAYFGFSVAATDINGDDYADVFIGAPLFMDRGSDGKLQEVGQVSVSLQRASGDFQTTKLNGFEVFARFGSAIAPLGDLDQDGFNDIAIAAPYGGEDKKGIVYIFNGRSTGLNAVPSQILEGQWAARSMPPSFGYSMKGATDIDKNGYPDLIVGAFGVDRAILYRARPVITVNAGLEVYPSILNQDNKTCSLPGTALKVSCFNVRFCLKADGKGVLPRKLNFQVELLLDKLKQKGAIRRALFLYSRSPSHSKNMTISRGGLMQCEELIAYLRDESEFRDKLTPITIFMEYRLDYRTAADTTGLQPILNQFTPANISRQAHILLDCGEDNVCKPKLEVSVDSDQKKIYIGDDNPLTLIVKAQNQGEGAYEAELIVSIPLQADFIGVVRNNEALARLSCAFKTENQTRQVVCDLGNPMKAGTQLLAGLRFSVHQQSEMDTSVKFDLQIQSSNLFDKVSPVVSHKVDLAVLAAVEIRGVSSPDHVFLPIPNWEHKENPETEEDVGPVVQHIYELRNNGPSSFSKAMLHLQWPYKYNNNTLLYILHYDIDGPMNCTSDMEINPLRIKISSLQTTEKNDTVAGQGERDHLITKRDLALSEGDIHTLGCGVAQCLKIVCQVGRLDRGKSAILYVKSLLWTETFMNKENQNHSYSLKSSASFNVIEFPYKNLPIEDITNSTLVTTNVTWGIQPAPMPV
chain 2: GCALGGAETCEDCLLIGPQCAWCAQENFTHPSGVGERCDTPANLLAKGCQLNFIENPVSQVEILKNKPLSVGRQKNSSDIVQIAPQSLILKLRPGGAQTLQVHVRQTEDYPVDLYYLMDLSASMDDDLNTIKELGSRLSKEMSKLTSNFRLGFGSFVEKPVSPFVKTTPEEIANPCSSIPYFCLPTFGFKHILPLTNDAERFNEIVKNQKISANIDTPEGGFDAIMQAAVCKEKIGWRNDSLHLLVFVSDADSHFGMDSKLAGIVIPNDGLCHLDSKNEYSMSTVLEYPTIGQLIDKLVQNNVLLIFAVTQEQVHLYENYAKLIPGATVGLLQKDSGNILQLIISAYEELRSEVELEVLGDTEGLNLSFTAICNNGTLFQHQKKCSHMKVGDTASFSVTVNIPHCERRSRHIIIKPVGLGDALELLVSPECNCDCQKEVEVNSSKCHHGNGSFQCGVCACHPGHMGPRCECGEDMLSTDSCKEAPDHPSCSGRGDCYCGQCICHLSPYGNIYGPYCQCDNFSCVRHKGLLCGGNGDCDCGECVCRSGWTGEYCNCTTSTDSCVSEDGVLCSGRGDCVCGKCVCTNPGASGPTCERCPTCGDPCNSKRSCIECHLSAAGQAREECVDKCKLAGATISEEEDFSKDGSVSCSLQGENECLITFLITTDNEGKTIIHSINEKDCPKPPNIP
As to B1, the Kd (as a rule, the concentration at which binding is half-saturated) was roughly 10 nM.
